We go through one substance from US20240000930A1.

The target in assay [1] is carboxymethyl lysine conjugated to keyhole limpet hemocyanin (CML-KLH). Description: direct binding ELISA, CML-KLH coat 1 ug/mL, antibody at 50 ug/mL. On the technique in general: An ELISA detects its analyte on a solid surface through an enzyme-linked reagent.
For assay [2] the target is unchanged. Description: direct binding ELISA, CML-KLH coat 1 ug/mL, antibody at 0.07 ug/mL.
For assay [3] the target is unchanged. In words: direct binding ELISA, CML-KLH coat 1 ug/mL, antibody at 0.21 ug/mL.
For assay [4] the target is unchanged. In words: direct binding ELISA, CML-KLH coat 1 ug/mL, antibody at 0.62 ug/mL.
Assay [5] has the same target. In words: direct binding ELISA, CML-KLH coat 1 ug/mL, antibody at 1.85 ug/mL.
Assay [6] has the same target. Description: direct binding ELISA, CML-KLH coat 1 ug/mL, antibody at 5.56 ug/mL.
Assay [7] shares this target. Description: direct binding ELISA, CML-KLH coat 1 ug/mL, antibody at 16.67 ug/mL.

On to “anti-carboxymethyl lysine (CML) antibody (R&D Systems, MAB3247)”, for which the OD450 absorbance in assay [1] came to 0.462 OD450; in assay [2], 0.086 OD450; in assay [3] it was 0.075 OD450; in assay [4], 0.083 OD450; in assay [5] it was 0.092 OD450; in assay [6] it was 0.165 OD450. Moreover, the OD450 absorbance in assay [7] was 0.312 OD450.
